US20170355757A1 (Regeneron, published 2017)

T1: monkey C5-mmh (monkey, UniProt P01031 19-1676 (human entry), limits assumed)
T1 construct: recombinant, with C-terminal myc-myc-hexahistidine tag
T1 chain: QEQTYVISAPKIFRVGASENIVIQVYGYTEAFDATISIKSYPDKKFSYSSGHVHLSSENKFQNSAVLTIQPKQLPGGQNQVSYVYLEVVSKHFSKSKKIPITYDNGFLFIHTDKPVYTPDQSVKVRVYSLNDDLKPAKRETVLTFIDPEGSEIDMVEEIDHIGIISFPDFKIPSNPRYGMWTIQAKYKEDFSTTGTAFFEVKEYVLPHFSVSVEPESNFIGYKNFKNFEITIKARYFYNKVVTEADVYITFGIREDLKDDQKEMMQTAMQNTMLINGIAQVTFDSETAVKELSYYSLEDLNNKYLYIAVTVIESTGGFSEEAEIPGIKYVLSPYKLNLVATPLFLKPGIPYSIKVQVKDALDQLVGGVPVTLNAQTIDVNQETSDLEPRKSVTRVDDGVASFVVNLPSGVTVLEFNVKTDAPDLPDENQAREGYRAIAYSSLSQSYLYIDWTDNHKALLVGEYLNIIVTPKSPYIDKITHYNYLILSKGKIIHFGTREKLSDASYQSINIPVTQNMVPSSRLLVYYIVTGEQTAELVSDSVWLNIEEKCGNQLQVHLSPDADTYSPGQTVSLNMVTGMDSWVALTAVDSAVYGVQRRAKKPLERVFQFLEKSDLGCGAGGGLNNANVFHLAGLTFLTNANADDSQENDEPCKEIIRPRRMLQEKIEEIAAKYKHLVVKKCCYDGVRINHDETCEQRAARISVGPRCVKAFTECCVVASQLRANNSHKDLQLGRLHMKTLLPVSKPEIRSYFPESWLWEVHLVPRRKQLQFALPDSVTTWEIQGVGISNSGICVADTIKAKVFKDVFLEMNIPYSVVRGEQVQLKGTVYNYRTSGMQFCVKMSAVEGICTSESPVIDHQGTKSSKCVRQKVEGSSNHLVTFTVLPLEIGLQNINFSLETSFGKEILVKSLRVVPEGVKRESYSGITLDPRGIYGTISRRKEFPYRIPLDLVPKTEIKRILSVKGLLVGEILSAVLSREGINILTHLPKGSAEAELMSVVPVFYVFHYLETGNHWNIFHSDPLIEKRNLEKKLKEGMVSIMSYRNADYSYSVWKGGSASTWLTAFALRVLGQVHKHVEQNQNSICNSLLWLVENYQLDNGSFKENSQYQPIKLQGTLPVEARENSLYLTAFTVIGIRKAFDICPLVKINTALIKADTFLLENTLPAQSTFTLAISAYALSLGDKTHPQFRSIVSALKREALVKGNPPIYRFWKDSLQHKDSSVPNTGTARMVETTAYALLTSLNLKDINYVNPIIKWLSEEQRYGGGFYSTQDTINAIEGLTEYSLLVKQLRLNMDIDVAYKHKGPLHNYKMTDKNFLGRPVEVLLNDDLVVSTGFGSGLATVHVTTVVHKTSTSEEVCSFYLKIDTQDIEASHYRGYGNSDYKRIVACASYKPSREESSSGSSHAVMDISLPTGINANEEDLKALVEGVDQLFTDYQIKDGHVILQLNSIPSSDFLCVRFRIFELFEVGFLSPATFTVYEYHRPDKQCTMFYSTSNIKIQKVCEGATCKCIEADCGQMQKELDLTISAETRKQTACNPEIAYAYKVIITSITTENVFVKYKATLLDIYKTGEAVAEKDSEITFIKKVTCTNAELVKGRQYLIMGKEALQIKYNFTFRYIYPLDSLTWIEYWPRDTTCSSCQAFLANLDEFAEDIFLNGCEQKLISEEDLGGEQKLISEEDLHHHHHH


What was measured:
[1] = target: Cynomolgus monkey C5 (cynomolgus monkey, UniProt A0A2K5U1T1 19-1676); assay: cell-based or functional assay
[2] = target: T2, human C5 (human, UniProt P01031 19-1676); assay: cell-based or functional assay
[3] = target: T1, monkey C5-mmh; assay: SPR (Biacore), mAb captured, dissociation of monkey C5 at pH7.4 vs pH6.0, 37°C
[4] = target: T1, monkey C5-mmh; assay: SPR (Biacore), mAb captured, dissociation of monkey C5 at pH7.4 vs pH6.0, 25°C
[5] = target: T2, human C5; assay: SPR (Biacore), mAb captured, dissociation of human C5 at pH7.4 vs pH6.0, 37°C
Description: Effect of pH on the rate of dissociation of recombinant human C5 bound to purified anti-C5 monoclonal antibodies was determined using a real-time surface plasmon resonance biosensor using a Biacore T200 instrument. The Biacore sensor surface was first derivatized by amine coupling with a monoclonal mouse anti-human Fc antibody (GE, # BR-1008-39) to capture anti-C5 monoclonal antibodies expressed with human IgG4 Fc. All Biacore binding studies were performed using two running buffers PBS-T, pH7.4 (0.01M Na₂HPO₄/NaH₂PO₄, 0.15M NaCl, 0.05% v/v Tween-20, adjusted to pH7.4) and PBS-T, pH6.0 (0.01M Na₂HPO₄/NaH₂PO₄, 0.15M NaCl, 0.05% v/v Tween-20, adjusted to pH6.0). […] Binding dissociative half-lives (t %) were calculated from kd as: […]

[6] = target: T3, African green monkey C5 (African green monkey); assay: cell-based or functional assay
[7] = target: T2, human C5; assay: cell-based or functional assay; remark: listed apart in the source
[8] = target: T3, African green monkey C5; assay: cell-based or functional assay; remark: listed apart in the source
[9] = target: human C5 R885H-mmh (human, UniProt P01031 19-1676); assay: cell-based or functional assay
[10] = target: human C5 R885C-mmh (human, UniProt P01031 19-1676); assay: cell-based or functional assay

Row | Binder | t½ Ratio pH7.4/pH6.0 [3] | t½ Ratio pH7.4/pH6.0 [4] | t½ Ratio pH7.4/pH6.0 [5] | IC50, inhibition of CDC of Daudi cells, 1.66% human serum [7] | IC50, inhibition of CDC of Daudi cells, 1.66% African Green monkey serum [8] | IC50, inhibition of CDC of Daudi cells, C5 depleted human serum and 6.6 nM C5 Variant R885H [9] | IC50, inhibition of CDC of Daudi cells, C5 depleted human serum and 6.6 nM C5 Variant R885C [10] | Cyno AP % Max Inhibition, hemolysis assay, 5% serum [1] | Cyno CP % Max Inhibition, hemolysis assay, 5% serum [1] | Cyno Serum AP IC50, hemolysis assay, 5% serum [1] | Cyno Serum CP IC50, hemolysis assay, 5% serum [1] | Human AP % Max Inhibition, hemolysis assay, NHS [2] | Human AP IC50, hemolysis assay, NHS [2] | Human CP % Max Inhibition, hemolysis assay, NHS [2] | Human CP IC50, hemolysis assay, NHS [2] | AGM AP % Max Inhibition, hemolysis assay, 5% serum [6] | AGM CP % Max Inhibition, hemolysis assay, 5% serum [6] | AGM Serum AP IC50, hemolysis assay, 5% serum [6] | AGM Serum CP IC50, hemolysis assay, 5% serum [6]
1 | H4H11683N (antibody, human IgG4, V domains shown, tested with H4H prefix (human IgG4 Fc with S108P hinge mutation); variable regions follow the numerical identifier; also called H2M11683N) VH: QVQLVESGGGVVQPGRSLRLSCVASGFTFSSYGIHWVRQAPGKGLEWVAVIWDDGNNINYSDSVKGRFIISRDNSRKTVYLQMNSLRGEDTAVYYCARDAPIAPVPDYWGQGTLVTVSS VL: DIQMTQSPSTLSASVGDRVTITCRASQSISSWLAWYQQKPGKAPKLLIYKASSLDTGVPSRFSGSGSGTEFTLTISSLQPDDFATYYCQQYNTYSYTFGLGTKLEIK | 0.7 | 0.34 | 1.4 | 1.2 nM | 4 nM | 1.3 nM | 0.9 nM | 98.9% | 98.8% | 7.15 nM | 9 nM | 73.2% | 34 nM | 98.1% | 2.54 nM | 88.1% | 81.1% | 40.8 nM | 29.2 nM
2 | H4H12159P (antibody, human IgG4, V domains shown, H4H: human IgG4 Fc with S108P hinge mutation) VH: QVQLVESGGGVVQPGRSLRLSCGASGFTFSTYGMHWVRQAPGKGLEWVAVIWDDGNNKYYADSVKGRFTISRDNSKNTLYLQMNSLRAEDTAVYYCARDSEVAPVGDYWGQGTLVTVSS VL: DIQMTQSPSTLSASVGDRVTIICRASQSINRWLAWYQQKPGKAPKLLIYKASSLESGVPSRFSGSGSGTEFTLTISSLQPDDFAAYYCQQYNDYSYTFGQGTKLEIK | 6.3 | 1.2 | ≤ 0.2 | 3.2 nM | 3.4 nM | 1.4 nM | 1 nM | 99.6% | 99.3% | 7.05 nM | 7.75 nM | 73.4% | 17.5 nM | 97.9% | 2.5 nM | 93.5% | 93.4% | 27 nM | 25.8 nM

Further lines, with some results ahead:

Row | t½ Ratio pH7.4/pH6.0 [3] | t½ Ratio pH7.4/pH6.0 [4] | t½ Ratio pH7.4/pH6.0 [5] | IC50, inhibition of CDC of Daudi cells, 1.66% human serum [7] | IC50, inhibition of CDC of Daudi cells, 1.66% African Green monkey serum [8] | IC50, inhibition of CDC of Daudi cells, C5 depleted human serum and 6.6 nM C5 Variant R885H [9] | IC50, inhibition of CDC of Daudi cells, C5 depleted human serum and 6.6 nM C5 Variant R885C [10] | Binder | Cyno AP % Max Inhibition, hemolysis assay, 5% serum [1] | Cyno CP % Max Inhibition, hemolysis assay, 5% serum [1] | Cyno Serum AP IC50, hemolysis assay, 5% serum [1] | Cyno Serum CP IC50, hemolysis assay, 5% serum [1] | Human AP % Max Inhibition, hemolysis assay, NHS [2] | Human AP IC50, hemolysis assay, NHS [2] | Human CP % Max Inhibition, hemolysis assay, NHS [2] | Human CP IC50, hemolysis assay, NHS [2] | AGM AP % Max Inhibition, hemolysis assay, 5% serum [6] | AGM CP % Max Inhibition, hemolysis assay, 5% serum [6] | AGM Serum AP IC50, hemolysis assay, 5% serum [6] | AGM Serum CP IC50, hemolysis assay, 5% serum [6]
3 | 1.5 | 3.7 | 1.3 | 2.2 nM | 6.1 nM | 2.4 nM | 1.6 nM | H4H12177P2 (antibody, human IgG4, V domains shown, H4H: human IgG4 Fc with S108P hinge mutation) VH: EVQLVESGGGVVQRGESLRLSCSASDFIFKDYAMYWVRQIPGKGLEWISLISGDGDTTWYGDSVKGRFTISRDNNENSLFLQMNDLRTEDTAMYYCARDMGWNFFQLQYWGQGTLVTVSS VL: not shown | 98.1% | 94.9% | 8.8 nM | 17.1 nM | 71% | 17 nM | 97.5% | 2.34 nM | 8.8% | 80.6% | 101 nM | 180 nM
4 | 4.7 | ≤ 1.7 | ≤ 0.2 | 2 nM | 3.7 nM | 0.48 nM | 0.43 nM | H4H12170P (antibody, human IgG4, V domains shown, H4H: human IgG4 Fc with S108P hinge mutation) VH: QVQLVESGGGVVQPGRSLRLSCAASGFTFSGYGMHWVRQAPGKGLEWVALIWLDGSNDYYADSVKGRFTISRDNSKNTLYLQMNRLRAEDTAVYYCARDGPVAAIPDYWGQGTLVTVSS VL: DIQMTQSPSTLSASVGDRVTITCRASQSISRWLAWYQLKPGKAPKLLIYKASSLESGVPSRFSGSGSGTDFTLTISSLQPDDFATYYCQQYNTYSYTFGQGTKLEIK | 99.2% | 99% | 7 nM | 8.2 nM | 81.1% | 18 nM | 98.2% | 2.39 nM | 90.9% | 94.9% | 26.9 nM | 25.4 nM
